# Results reported in the DeepSol protein solubility set.
# Experiment: soluble on expression in E. coli; label from the status in PepcDB or PDB records
row,Sequence,soluble on expression in E. coli
1,AIANNSHTGFVGEMFGSSDILRSVSIPSEADKPMIVELAVAAMEELVRMAQTGDPLWVSSDNSVEILNEEEYFRTFPRGIGPKPIGLRSEASRESTVVIMNHINLIEILMDVNQWSSVFCGIVSRALTLEVLSTGVAGNYNGALQVMTAEFQVPSPLVPTRENYFVRYCKQHSDGIWAVVDVSLDSLRPSPITRSRRRPSGCLIQELQNGYSKVTWVEHIEVDDRSVHNMYKPLVNTGLAFGAKRWVATLDRQCERLASSMASNIPACDLSVITSPEGRKSMLKLAERMVMSFCTGVGASTAHAWTTLSTTGSDDVRVMTRKSV,soluble
2,LGASWHRPDKCCLGYQKRPLPQVLLSSWYPTSQLCSKPGVIFLTKRGRQVCADKSKDWVKKLMQQLPVTAR,soluble
3,MGKTSKYVTAAALCSTIVMGGLHASSVSYAATNPTVATLQSDAKLLNDFKKELKKQIDNREENITITYKTKDRNARNIMDELYGEFNKIVDADEYVKYNIASTRYSIKGLPGNYTFTLQVKYRESKEQTQYVKSQAKAIIGSIVKPGMDEHEKVKAIHDYVVKHVSYDTSYQAYTAYEALANRSAVCQGYTLLTYELLKEAGIQNRIVTGTGNGQAHSWNLVNIENKWYHLDTTFDDPVPDKAGRVTYSYFNMSDEQLSKDHDWDRSKYPAATTSYFNELTNKIKAGSSKTATYEQMLKETNLKYLSAQYGADNYSEFKEKLQQQFASKPEKVEVRYKQSMDGTMQDIKKVLNEINWPKGAKRVSYQVAPYSAMADYSLATITFTY,not soluble
4,MNAVTEGRKVLLEIADLKVHFEIKDGKQWFWQPPKTLKAVDGVTLRLYEGETLGVVGESGCGKSTFARAIIGLVKATDGHVAWLGKELLGMKPDEWRAVRSDIQMIFQDPLASLNPRMTIGEIIAEPLRTYHPKMSRQEVRERVKAMMLKVGLLPNLINRYPHEFSGGQCQRIGIARALILEPKLIICDEPVSALDVSIQAQVVNLLQQLQREMGLSLIFIAHDLAVVKHISDRVLVMYLGHAVELGTYDEVYHNPLHPYTRALMSAVPIPDPDLEKNKTIQLLEGELPSPINPPSGCVFRTRCPIAGPECAKTRPVLEGSFRHAVSCLKVDPL,not soluble
5,MGSDKIHHHHHHMEEHFLYVPYYNRTRRIRVLLPKDYYTDTWDSYAVLYMHDGQNIFYSKESYSGYSWKIIPTIKHHKEFPKIIIVGIDNSGVDRLDEYGPWRTDVGSSPEIKKCGGKGMEYGKWVVEIVKPFIDQHYRTKPQKEHTLLAGSSMGGIITAYMGSAYPQIFGHLGVFSLASWFSEKDFLHFIHHNPIDKNSKVFIQVGTKEGDDVDSLFISNMNQAYIDCTLHYYQALLRTGHPLDNIRLRMMANEIHHEKHWADHFVEFLHFSLL,not soluble
6,CIHSLKSEAIFFERTANFDGNTREKIIAMHVGYRIYARMEPVLSTCAIVAKTPWVLEKASPERLNELNRLEEEVISGADALVNNAVECGDLKFSPAIGADAIVFANWSIAFGSNALAQNASNSRCIQRIQDPFSVLHNANMLLDGLGWAPLSTEWDYRKTWRRVEQELFSEEIAYLETVNR,not soluble
7,MNLKDLLAHRENLMDSAKRARSAITDDMDPADAAQAVENVKSIISEIESTDEAIAARRGVSDVTQKLKGLTITERGTENDSAASRSLGEHFVKAAGDRLKNQAAGAHIEYSVPEYQVKEDAHSSPKDLVEGWGTFYQR,soluble
8,LVSITDLQGRILYANDNFCAVSRYGREELVGQDHRIVNSGYHGKAYIRDMWRTISRGNIWQGEFCNRRKDGTRYWVDSTIVPLMDNAGKPRQYISIRRDITAQKEAEAQLARLKQAMDANSEMILLTDRAGRIIYANPALCRFSGMAEGELLGQSPSILDSPLADQETLAAMQEALQAGQPWSGRLLNRRRTGPAPHDAEDYWAEISTTPIHTDGNGLVGYVQIQHD,soluble
9,GMAGKVEARKAALREKLIDLAEAQIEAEGLASLRARELARQADCAVGAIYTHFQDLNALTLEVNGRTFARLGAAVGAVVADGQDDHPNERLIAMSHAYLAFAREHPKLWRALFDVEMRSDGPVPQWYGHAMAQLFSYITTPLAKIFPESDDAELDLMTRTLFSSVHGIVLLGLENRISGVPGEQLKTMIRLLLEQVGR,soluble
10,SMYMSNPTVRIAFVGKYLQDAGDTYFSVLQCFEHCQIALQVRLDILYVDSEELEGPNADEARKALLGCDGIFVPGGFGNRGVDGKCAAAQVARMNNIPYFGVCLGMQVAVIELSRNVVGWSDANSEEFNKESTHQVVRIMDCDRNKMGANMHLGACDVYIVEKSSIMAKIYSKSNIVVERHRHRYEVNTAYFEDLRKAGLCISAVTDPTFSSRCRVEAVENPSLRFFLAVQFHPEFISTPMDPAPTYLSFMAAAAKKDYVWPQKCSQRRLKQA,soluble
11,MEKNRSAFQQNQQASNQPFNQDQNQYYQDPNQQQFNQSGFDPNQQQFNQPGFDPNQQYYQDPNQQQFNQAGFDQNQQYYQDPNQQQFNQPGFDPNQQYYQDPNQQQFNQAGFDQNQYYQDPNQQQFNQSGFDQNQYYQDPNQQQFNQPSFDLNNQQFNQPGFNQSPAFEITPQEQKAEQEMFGEEPPQVVREIHELPFEKIRSFLQSDFDSYNFRLNSLKSKLDNALYSLDKTIQNTNENTANLEAIRHNLEQKIQNQSKQLRTNFDTQKLDDKINELEIRMQKLTRNFESLSELSKHNSYPNYYEKLLPNGGDSMTNVFEKALMMNLLRTTLPPQPQVQYYPQPYPYIRPYYDEPIYAGFRRRGYRDDFYE,soluble
12,AHHHHHHGSPKKERKVEGEEVIRVPLPEGNQLFGVVEQALGAGWMDVRCEDGKVRRCRIPGRLRRRVWIKVGDLVIVEPWPVQSDKRGDIVYRYTQTQVEWLLRKGKISQEFLTGGSLLLE,not soluble
13,MVMLTKCLSSKDNIMSLTCMPALFLGHGSPMNVLDDNDYTRAWRRLGEALPRPQAIVVVSAHWYTRGTGVTAMERPQTLHDFGGFPQALYDTHYPAPGSPALAQRLVELLAPVPVALDKEAWGFDHGSWGVLIKMYPNADIPMVQLSVDSTKPAAWHFEVGRKLATLRDEGVMLVASGNVVHNLRTVRWHGDNIPYPWAASFNDFVKANLTWQGPVEQHPLVNYLQHEGGALSNPTPEHFLPLLYVLGAWDGKEPITIPVDGIEMGSISMLSVQVGLEHHHHHH,not soluble
14,MAHHHHHHSLPIKIPDNLPAAKTLNEENIFFMDEDRAYHQDIRPLNIVIVNLMPTKIVTETQILRLIGNSPLQVNPTFIHTQTHKSQNTSKEHLIKFYETFEEIKNNKFDGMIVTGAPVETLSFENVDYWEELCRIFDWSVTNVTSTIHICWGAQAGLYHHYGIPKYELHEKLFGVFKHNLTERNIKLTRGFDDEFYAPHSRHTYVKREDIKKNPSLKILAESDEAGAYIVASENGKNIFVMGHAEYDGDTLNLEYIRDKNQGMNIKIPKNYFKDNDPEKGPMVTWRGHANLLFSNWLNYYVYQETPFELEG,soluble
15,MGSSHHHHHHGKTIFVIVPTNEEQVAFLEALAKQDELNFDWQNPPTEPGQPVVILIPSDMVEWFLEMLKAKGIPFTVYVEEGGSENLYFQGGGGGGRRLFLLLAWQPSFAKHLSELEPVPQRAPVEKRRRQHIPLSLQAREELSRKSNELQYHVVTQDWFGQRVDDFVTQHHPEWDYETVKRLVQQGHIYRYRKNGKKRYTRLTDRLEFDELVVVPTASFWERQLAPPSGVELQSSSTSQQQERRQKFHLSAKTREMAQEMVLFKNEHVIVINKPSGVPIMPTHDPLAMNITDLLPAWRYTNTQTPVICHNLDTETSGCVVLARSANTHRMLGRMFVKRVVPNSVYWGFAVGKPPVNFGRIRMHFEVQKGQGGDVIVARPTPTADSKVGIAEFVVNASALEFGSFISFYPLTTRRHQERIMAAHALRAPLLGDAKYGGESAFPHSLSLFWDPARKDVPLHLHHRKIQLPYKNGAGEFVCVTAPLPPHMEKTFKRLGWPVDADDPLIPG,not soluble
16,SAKFVIAGRADCPYYAKTELVADYLQKNLPDFRIHKITQRPEVWEDWLKDVCEKNKWSHKNSPIIWRELLDRGGKGLLLGGYNEFLEHAQLYYDVTSSMTTELMMVIAQENLGAHIEKEQEEEALKTCINPLQVWITSEWVKREFVAILKNLTTTGRQFGGILAAHSIATTLKYWYHGSPPGEIVSLGILSEGQFGIPKGIVFSMPVKFENGTWVVLTDLKDVEISEQIMTRMTSDLIQEKLVALGDKIHFQPYQSDTPRTNTLHPSIQSSWHSVLTITIRKR,soluble
17,MQTKNKQGVLLVNLGTPDEPTAPAVKRFLSQFLHDHRVVDMTRWLWCPILHGVILPIRSPKVAKLYESVWMEEGSPLMVYSKRQAKKLAQHLDMPVELGMTYGNPSLQSGFEALIAQGVEEVIVLPLYPQYSGTTTAAVSDGITKAFKQLPVMPAFSFIRDYHDHPMYIEALAHSVRQYWEEHGKGDYLLCSYHGIPKRYADNGDIYPQHCEATTRLLGEALGLSSDQIGMAYQSRFGREEWLQPYTDKTLETITSKGVKKIDIMTPAFSSDCLETLEEIAGENKEIFMEAGGEQFHYIPCLNDDDMHIDMMAELVRSKL,not soluble
18,MGSDKIHHHHHHMTWGCHHLIKKVDASFSLGPISFTLEPGTVTALVGDNGSGKSTFFRLWMDLIKANQGTWERKEGWKEDTAYVPQQLIGIEAFTLEELAYLYEGMYVKWDQKTFERLVESFSLPMKKPLHSLSVGMQKKALFSMAIARKPNLFLLDEPFAGVDMDGQEQMKDELIRYLTGHEQATVLFATHSAQEVKELADYLLVLHQGQMLGFYEKDRLLSSWGRFWLEGNASAIKNEENVVSMKIAGTRIEIITSDALRFEEQIAAAALEKVEAQPLELHEIVRLLKKRNVSVS,not soluble
19,MSLSMCGNKISVIRPLPAEVVKKIAAGEIIARPSSAIKELIENSVDAGATEIRVNLSSNPLDFCEIIDNGSGVSEKDLMIICQRYTTSKTTDSIEGVRSLGFRGEALSSLSQNSHVTISSRTENENMRTVMTYSECEPVLDEIRYEEGPRGFHLKYENLFYNYEIRSKSLLSNINSEFISCLHLVQKYSIHFPNINFVFNRTSSPILDLNNLNNVSSQQSSGSGSGDSCSSQPNCNFSTSSRFDDYDSSDDELDITLTQKLEYDYHYFTKMYDDPKSDDLRTEYIRNVEKVSFDCLRVIKENIKRIYGLKVSNVLQEVVFNNFDDLFFNCKGLISHPNQPCKLDMFILFVNNRLIDLPNLRRMIFNTYNDITNNRYRRFVYLSIFVPYDQIDSNIHPTKKRIMIENQAEIVEQITKFFHDKITELIKSATTEGHHHHHH,soluble
20,MDNKSEKVTVNKEELRKRLTPVQYQVTQEAGTERPFTGCYNKHYEKGVYQCIVCHQDLFSSETKYDSGCGWPAFNDVLDKGKVTLHRDASIPGGNILLLIAHPERIRTEVRCARCNAHMGHVFEDGPKPTRKRYCINSASIEFVNADPATSSPPVATPTAAPIAQQLEHHHHHH,soluble
21,SKILVFGHQNPDSDAIGSSMAYAYLKRQLGVDAQAVALGNPNEETAFVLDYFGIQAPPVVKSAQAEGAKQVILTDHNEFQQSIADIREVEVVEVVDHHRVANFETANPLYMRLEPVGSASSIVYRLYKENGVAIPKEIAGVMLSGLISDTLLLKSPTTHASDPAVAEDLAKIAGVDLQEYGLAMLKAGTNLASKTAAQLVDIDAKTFELNGSQVRVAQVNTVDINEVLERQNEIEEAIKASQAANGYSDFVLMITDILNSNSEILALGNNTDKVEAAFNFTLKNNHAFLAGAVSRKKQVVPQLTESFNG,soluble
22,AVINHDAVPVWPQPEPADATQALAVRFKPQLDVVNGCQPYPAVDPQGNTSGGLKPSGSQAAACRDMSKAQVYSRSGTYNGYYAIMYSWYMPKDSPSTGIGHRHDWENVVVWLDNAASANIVALSASAHSGYKKSFPADKSYLDGITAKISYKSTWPLDHELGFTTSAGKQQPLIQWEQMTQAARDALESTDFGNANVPFKSNFQDKLVKAFFQ,soluble
